The results in this text go back to the DeepSol protein solubility set.

A short description of this data set: soluble on expression in E. coli; label from the status in PepcDB or PDB records.
With “MGSDKIHHHHHHMKHAYLIIAHNEFEILKRLIQALDDERNDIYIHFDRKLNHYPDCRTSYAKLTFLEERMDVRWGDISVVDAEFALFDEAYRRGEYSYYHLLSGVDMPLKTQNYIHRFFEKNAGKEFVGYYQGNISKEIDRKVCRWHLFPKSFKETEGGLAVTKRVLRAGCVRLQSLLGIRRNKDINFRKGTQWLSISNELVGYLLQQQKEVRRVYTHTFCADEIFVQTICWNSSFRDRVYDMHDEGHGCLRMIGWKDNQLEEWKEKDFEILMNSEALFARKFSIRHIEVVDQILNEISK”, the “soluble on expression in E. coli” value is “not soluble”.
“MLNEKQAKHIATAIENGNYRSKRQAIVDTTNFWSVSVPIFYQFDTKLSATNIANVRKAIQFWNDNSCLSFKEDNNAKNRLFLSSAGGCWSYVGKQVDMPYQMVSVGPNCDTFGTATHELMHAIGFWHQQSRADRDNYVYVDFSNIIPSQAYNFQKMAVDQAQLLNLPYDYGSVMQYYPYAFAVDSSKYTILAKENGFQNSMGQREAPAFSDIIGVNKLYNCTSQCKIQMKCSNCGITDSRNCNQCKCPRYFTGASCDSLPSGTAPNCNGAVLQATSSWETFDAKAGDPSSFSSSTDNSTNCYWHIKAPEGQQIEFKMTKTPLAAICMQECPWQSIEVNLGKFDLFGMITCCDTILNQVFTSELNMIALRGIIRYNQLTFSIQYRAVPSSKPASTNACLNQ”: the “soluble on expression in E. coli” value is “not soluble”.
With “MASNDPGNEVSSYSPTSPSYVKFFTQSNLEKLPKYKEKKAASAKQTAPNNSNGGSEEEITCALDYLIPPPMPKNQQYRAFGSIW”, the “soluble on expression in E. coli” value was “soluble”.
On to “MSLTETCDRFALIGAGPMGLAMAKVMLEQGIAFDGFELHSDVGGLWDIDGPRSTMYESAHLISSKRMTEFTDFPMEEAVAEYPSHRELKRYFHAFAARYGLRDHYRFGAEVLRCEPLGEPGAGWRVIWRDAEGEHTETYAGVMIANGTLSEPNMPTFQGRFDGELIHSSAYRHPSQFDGKRVLIVGAGNSGCDIAVDAIHHGALCDLSMRRGYYFVPKYVFGKPADTLGGMIKLPMWLKRRVDGMILKWFVGDPQKYGFPKPDYQLYESHPVVNSLVLYHAGHGDLRIRPDIDRFDGRRVIFADGSSEEYDMILAATGYKLFYPFIDRDLLNWQGDAPHLYLNALHPERDDLFVLGMIEASGLGWQGRHEQAEMVARYITGLRRGGAAAAELKAAKSAGFERATGGMNYLKLARMAYYVDKATYRGAVTGWIDRLKRAQSEGHHHHHH”, for which the “soluble on expression in E. coli” value is reported as “soluble”.
In the case of “MLRRYSHFYSIRYSSTLLSTLDGLTNRTSGDKLLTYSEKFSKLYANSTPETRKSIFVDLVTNYGVNKEALNHAISLYSKNDQMYPEVRTSATASYVNLIKSIGNLPGGVMQVCEMRANILALLKRETDKTTTSYLRHIELATREVLTSWFSLGNLKLERLTWSSPGDILQKVAEYEAVHPVRGLSDFRKRLGPLRRCFYFSHEALPRNPLVMVHVALVDEIADSVQEITKRGAPTGKEEDQTTAIYYSITSTQPGLSGIDLGNMLIKKVATKLQKDVPSVTTHSTLSPIPGFRPWLIRNLKGNSEYPSIMNEKVVNWISDISEREMNEVEATETLLKVISNEKTKKEQLNAIQHILMYACAHYLCNAKRNGMALNSVANFHIRNGAELYRLNWNGDTSHRGINNSFGIMVNYRYDLEKVHENSAAYTEHKKMAINQKVLDIF”, the “soluble on expression in E. coli” value is listed as “not soluble”.
Regarding “MGSDKIHHHHHHMRALSFIFIALILVGCNEPAKEITKPIRPIMWTKVKISPFEQIRTLSGIVAPVEATKLSFEVQGKIQTIEVNLGNEVVKGQELARLNQRNFNLGLQSAQAQYQQAKATLIDARNSHRRYEQLLKQGVVSQSGFDNAKATYDASKSAADVAQAQLDIASKNLQDSILLAPYDGIITKRLYEPSQQISAGQSLFEIEGKHGLEVHVMVPETLIRELRQLSILPIHFPVLPELTMQGQITEIGTRAEYANAFPVTAVLEGDNPLLRAGMTAEVDFSFSGTGRTGHTGDVFRIPATALSAGLEQKAYVFVYNPDSQQVIKTQVQTENIFKNEVFISSGLKQGDIIAIAGVAFLRDGQQVSLTDNNVQRFN”, the “soluble on expression in E. coli” value is reported as “not soluble”.
As for “MGSDKIHHHHHHMIILDRNSYDLLSYLIKLEEPETVMSISKVLNQSRRKVYYHLDKINEALPSEIPKIISYPRIGILLSSQQKAACRTLLADLDDYSYVMSIQERMLLSITYIAIAKDRVTIEKLMQINAVSRNTILNDLNELRQRLSFEPYSIKLQATKSKGYYLDCHPLSKIQYLNKLLHTIYTDSNPNFIAMMRDKLRDFADLSSYFSDDISSFIRGELQVSQALLGKKINSQDIRFMVATLPYQLLSYQNLGLSEREQRDLLSEFSPIKERKEYEIARHLNENLKREFHIELDEIETSLIAVLLLSYRKDRDMHLESHDYDDMRRVLSYFIDAFELDYHVCFKHKQLLLNQLLTHCKALLFRKAYGIVSNNPLTDQIKDKYADLFAMTKVCLSILENAWSIKMNDDDIAYITIHIGGELVHSETKPTPPAVLTLVCDEGIGVQKLFMQQCKQYLPHSKIEAVLTSEQFYSVADIMAVDLVISTNDSLDTQLPTLFVHSILRDDDAIKLIRFAKQRGQTGQDDFDKKLETYIRHYVKNDSDCYVLKTKIEGLINEELLYDNNKR”, the entry is “not soluble”.
For “MGHHHHHHSHMIRDLEYYDSPILRKVAAPVTEITDELRQLVLDMSETMAFYKGVGLAAPQVGQSISLFIMGVERELEDGELVFCDFPRVFINPVITQKSEQLVYGNEGCLSIPGLRGEVARPDKITVSAKNLDGQQFSLALEGFLASIVMHETDHLHGVLYIDRMSDKDKTKQFKNNLEKIRRKYSILRGL”, the “soluble on expression in E. coli” value was “soluble”.
With “MGSDKIHHHHHHMGEKMLGIINATGSFPSLKKVTGHRSLAALPFGGRYRLIDFMLSNMVNSNIHSVAVFTSHKNRSLMDHVGSGKQWDLDRKRDGLFLFPPNCQCDQDEFGSFAHFRRHIDYFLRAREEYVVITNSHLVTALNFQAVLERHIHTAADITEVCHEGVSLQTYVLKKQLLLDLFDSYKDVEQYSLFDVVREKRGKSLHIATYEHTGYVAIIDSIESYYKHSLEILQPAIWKQLFKKEAPIFTKVKDEPPTRYVKGAVVKNTMIANGSIIEGEVENSVVSRSVKIGKGSIVRNSIIMQKSQIGDNCIIDGVIIDKDVKIGDGVVLKGNADEPYVVEKGSVQNSTINSYS”, the “soluble on expression in E. coli” value is on record as “not soluble”.
Turning to “MSTCKQFLSTKKKSKDSYEFIENLGEGSFAEVVLVAKVGTPNKMFAMKEISIVGKDECFMESIKRECSIQKRLSKSRHLNMIHLFEIRTNPENYQLILSYADGGDLFEKINQHGGLGSDEAHRYFKQLIDGLRFIHEEGVTHRDIKPENLLLTKSGILKIADFGFATMHRFNGAEQMLNAYCGSPPYIAPEVLTGIDYRGPAVDIWSAGVVLIAMIAGAVPWEQADHFDIFQSRYCSFRRNGRKGAWSRMSQQVISLLRKILLQAELRATISMIEEDPWFIYGEEVDAENKENGSQAQYRQESQTSSKPILNFENLLKDLNVSI”, the “soluble on expression in E. coli” value was “not soluble”.
Turning to “METKKQSESETYVERMVLPEDMDIYEYLYGGRLMEWIDNCASIVATKHCRKRTVTGSIDSLFFLLPIHLGDMVILHGYINYTTKSTMEIEIDVIKEEGLTGIRRYATKAYLTYVAIDSDGRPTEIPQIVPETDEEKRRYQDAEKRAEERRKRLESIKQQLASMVP”, the “soluble on expression in E. coli” value is “not soluble”.
For “MAFAIASALTSTLTLSTSRVQNPTQRRPHVASTSSTGGRLMRERLVVVRAGKEVSSVCEPLPPDRPLWFPGSSPPEWLDGSLPGDFGFDPLGLGSDPDTLKWFAQAELIHSRWAMLAVTGIIIPECLERLGFIENFSWYDAGSREYFADSTTLFVAQMVLMGWAEGRRWADLIKPGSVDIEPKYPHKVNPKPDVGYPGGLWFDFMMWGRGSPEPVMVLRTKEIKNGRLAMLAFLGFCFQATYTSQDPIENLMAHLADPGHCNVFSAFTSH”, the “soluble on expression in E. coli” value was “soluble”.
Take “MKVETCVYSGYKIHPGHGKRLVRTDGKVQIFLSGKALKGAKLRRNPRDIRWTVLYRIKNKKGTHGQEQVTRKKTKKSVQVVNRAVAGLSLDAILAKRNQTEDFRRQQREQAAKIAKDANKAVRAAKAAANKEKKASQPKTQQKTAKNVKTAAPRVGGKR”: the “soluble on expression in E. coli” value is “not soluble”.
Take “MSTNYEAIIIGAGQAGLAAAHELSRRGFTPGKDFLVLDSNDGPGGAWRHRWDSLTLGKAHGIADLPGLPMNRPDPKTPASTLVAGYYGAYENEFSFAVVRPVKVSRVEPTSEDPSSPLRVSSDDGREWITRMVLNATGTWTNPYVPYIPGIDKFQGKQLHTVNYRKAEDFKGKKVLVVGGGLSAVQFLLELEGLAETTWATRRPPNFTQREFDAGWGIAVERAVRERTFNGKAPASVVRTTGIPQIPDYLAGVDRGLIVSRGMFEEITPTGVVFGEPPAERSEGLGPSAGTTLAVPESWKPYPAGTHLDVDVIFWNTGFRAALRHLAPMKLRGQGRGIELIDEVSPASDARVLLVGYGSTASTVGATRAGRVAGRVAAKRLLVDVSPHVNLEHHHHHH”: the “soluble on expression in E. coli” value is reported as “not soluble”.
As for “MGSDKIHHHHHHMLRSMYSGISGLKNFQTKLDVVGNNIANVNTFGYKKGRVTFKDLVSQSVGSASGNGGGVGGANPKQVGLGASMATVDSVSNQGALQNTGRTLDVAISGEGFFQIQTADGIRYARSGNFYTDLDGNLVTGDGNYVIGSDNAGPLGQPTIPLGGGYKTINIPANAQNLSIGKDGLVTYVDPAGTLQQAGYISLANFPNPGGLEKSGSNMYSISQNSGQPTSATPSTNGLGQLTSGTLEMSNVDLSEEFTEMIIAQRGFQANTRIITTSDQILEELVNLKR”, the entry is “not soluble”.
Consider “AIARALESTPLTGDVDWKSPLGSRSTWARLREQTRHCTFYRTYCFKASLKQLEEVTEEHVTYVGDCAALPPSPFLCVLLAYDCCSPSREEVAAHLDCSKNVYWRAIVATWIRWKESRAEQVYQLLDPLYRDYRPIKVRQKDNSYHNSYLDVFIDQLLRYRCALVSLEEPFVLDVIPFPHLPPRYELEARGVLPQREYAAPADDDDDDDAVSRPRLQQ”, for which the “soluble on expression in E. coli” value is listed as “soluble”.
Turning to “MANDGYFEPTQELSDETRDMHRAIISLREELEAVDLYNQRVNACKDKELKAILAHNRDEEKEHAAMLLEWIRRCDPAFDKELKDYLFTNKPIAHE”, the “soluble on expression in E. coli” value was “soluble”.
Turning to “MMNEKILIVDDQYGIRILLNEVFNKEGYQTFQAANGLQALDIVTKERPDLVLLDMKIPGMDGIEILKRMKVIDENIRVIIMTAYGELDMIQESKELGALTHFAKPFDIDEIRDAVKKYLPLKSN”, the “soluble on expression in E. coli” value is reported as “soluble”.
As for “MSSEKEYVEMLDRLYSKLPEKGRKEGTQSLPNMIILNIGNTTIIRNFAEYCDRIRREDKICMKYLLKELAAPGNVDDKGELVIQGKFSSQVINTLMERFLKAYVECSTCKSLDTILKKEKKSWYIVCLACGAQTPVKPL”, the “soluble on expression in E. coli” value was “soluble”.
For “MGSDKIHHHHHHIRPIQRGKANAKVEFGAKIDCSLSEGVVDIERFDFTAFSEGQDFTETLDHYYDLHGHYPDEVLADTLYRNRENLKLCKDLGIRVCGPKLGRHPKNVDAAKRREDTDAENRRGTIERRFAFMKGTLGLDLVNTRTAESLAVKIDAAIVLSNALTLLRVFAIPILILAKFEGEAYRIRYKFTTRVEDMLA”, the “soluble on expression in E. coli” value is “not soluble”.
As to “MKRILCITGTRADFGKLKPLLAYIENHPDLELHLIVTGMHMMKTYGRTYKEVTRENYQHTYLFSNQIQGEPMGAVLGNTITFISRLSDEIEPDMVMIHGDRLEALAGAAVGALSSRLVCHIEGGELSGTVDDSIRHSISKLSHIHLVANEQAVTRLVQMGEKRKHIHIIGSPDLDVMASSTLPSLEEVKEYYGLPYENYGISMFHPVTTEAHLMPQYAAQYFKALELSGQNIISIYPNNDTGTESILQELLKYQSDKFIAFPSIRFEYFLVLLKHAKFMVGNSSAGIREAPLYGVPSIDVGTRQSNRHMGKSIIHTDYETKNIFDAIQQACSLGKFEADDTFNGGDTRTSTERFAEVINNPETWNVSAQKRFIDLNL”, the “soluble on expression in E. coli” value is on record as “not soluble”.
